{
  "source": "patent US20200270339A1",
  "key": {"[1]": {"target": "human IL-15 complexed with the IL-15 Receptor-alpha (human) (UniProt P40933)", "sequence (P40933 49-162 limits assumed, chain 1 of 2)": "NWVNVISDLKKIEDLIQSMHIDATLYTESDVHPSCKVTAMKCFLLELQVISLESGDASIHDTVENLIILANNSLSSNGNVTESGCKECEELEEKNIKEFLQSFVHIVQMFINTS", "sequence (chain, as listed by the source limits assumed, chain 2 of 2)": "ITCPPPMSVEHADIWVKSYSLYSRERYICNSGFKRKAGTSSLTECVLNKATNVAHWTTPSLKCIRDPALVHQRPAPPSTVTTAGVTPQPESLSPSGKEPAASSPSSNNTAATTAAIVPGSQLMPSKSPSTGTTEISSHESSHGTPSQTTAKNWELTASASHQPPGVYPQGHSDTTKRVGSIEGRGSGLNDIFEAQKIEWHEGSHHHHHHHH", "test": "SPR, antibody captured on Protein A chip, IL-15 complex as analyte"}, "[2]": {"target": "human IL-15 complexed with the IL-15 Receptor-alpha (human) (UniProt P40933)", "test": "SPR, antibody captured on Protein A chip"}, "[3]": {"target": "human IL-15 complexed with the IL-15 Receptor-alpha (human) (UniProt P40933)", "test": "SPR"}, "[4]": {"target": "human IL-15 complexed with the IL-15 Receptor-alpha (human) (UniProt P40933)", "test": "cell-based or functional assay"}},
  "note": "Where “and” joins values, the source holds several entries; their conditions need not be identical. Equal values may be shown once.",
  "data": [
    {"substance": "AMG714 (antibody)", "values": [
      {"measurement": "Kd", "setting": "[1]", "result": 1.84, "unit": "nM"},
      {"measurement": "fold faster dissociation rate than from Antibody 70 variants", "setting": "[2]", "result": 10, "unit": "fold"},
      {"measurement": "Kd", "setting": "[3]", "result": "1.86 nM and 1.82 nM"},
      {"measurement": "koff", "setting": "[3]", "result": "0.000398 s⁻¹ and 0.00038 s⁻¹"},
      {"measurement": "kon", "setting": "[3]", "result": "209000 M⁻¹ s⁻¹ and 214000 M⁻¹ s⁻¹"},
      {"measurement": "Max IC50 (pM), NK-92 proliferation assay", "setting": "[4]", "result": 2650, "unit": "pM"},
      {"measurement": "Mean IC50 (pM), NK-92 proliferation assay", "setting": "[4]", "result": 1300, "unit": "pM"},
      {"measurement": "Min IC50 (pM), NK-92 proliferation assay", "setting": "[4]", "result": 378, "unit": "pM"}
    ]}
  ]
}
